Results reported in paper PMC8882475.

Molecular target: FcRn (UniProt P55899)
Experiment: BLI

SI–F019, huACE2 (18–615) - IgG1 Fc null (from UniProt Q9BYF1-1 18-615) (Fc fusion)
Kd: 37.6 nM
